Assay results reported in patent publication US20060058230A1 (published 2006).
Non-standard residues stand in square brackets, D forms with d. No end group written: not given here. 2Nal = N[C@@H](Cc1ccc2ccccc2c1)C(=O)O; Nle = CCCC[C@H](N)C(=O)O; βAla = NCCC(=O)O

Key:
[1] = target: T1, recombinant hPTH1-receptor (human, UniProt Q03431 27-593); experiment: cell-based or functional assay
T1 sequence (looked up): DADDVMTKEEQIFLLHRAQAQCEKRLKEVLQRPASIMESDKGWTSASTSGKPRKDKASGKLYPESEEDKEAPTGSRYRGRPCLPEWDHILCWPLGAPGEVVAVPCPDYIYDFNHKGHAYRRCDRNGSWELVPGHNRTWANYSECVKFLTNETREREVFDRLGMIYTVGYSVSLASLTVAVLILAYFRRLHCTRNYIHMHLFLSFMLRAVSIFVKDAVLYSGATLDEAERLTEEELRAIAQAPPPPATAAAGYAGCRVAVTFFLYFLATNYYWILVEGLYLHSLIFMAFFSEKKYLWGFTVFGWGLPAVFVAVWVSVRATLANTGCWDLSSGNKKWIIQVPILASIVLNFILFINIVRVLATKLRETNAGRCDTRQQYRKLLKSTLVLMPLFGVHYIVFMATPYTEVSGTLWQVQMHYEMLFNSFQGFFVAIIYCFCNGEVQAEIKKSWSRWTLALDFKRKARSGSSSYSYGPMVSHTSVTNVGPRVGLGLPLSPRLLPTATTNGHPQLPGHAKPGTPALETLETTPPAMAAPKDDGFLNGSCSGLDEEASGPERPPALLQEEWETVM

[2] = target: T1, recombinant hPTH1-receptor; experiment: competition with 125I-[Nle8,18,Nal23,Tyr34]bPTH(1-34)NH2 on HEK293/C21 cells with hPTH1-receptor
Description: Human embryonic kidney (HEK293) cells, stably transfected with recombinant hPTH1-receptor (HEK293/C21 cell line, ˜400,000 receptors/cell) (Pines, M., Adams, A. E., Stueckle, S., Bessalle, R., Rashti-Behar, V., Chorev, M., Rosenblatt, M., and Suva, L. J. Endocrinology 1994, 135, 1713-1716), were maintained in D-MEM medium supplemented with 10% fetal bovine serum and […] glutamine at 37° C. in a humidified atmosphere of 95% air/5% CO₂. The medium was changed every 3-4 days, and the cells were subcultured every week. Ligand stimulated adenylyl cyclase activity and radioreceptor competition binding assays were performed on confluent cultures, 1-3 days after a change of medium.
[Nle^{8,18},Nal²³,Tyr³⁴]bPTH(1-34)-NH₂ was radioiodinated and the crude material was purified as previously described (Roubini, E., Duong, L. T., Gibbons, S. W., Leu, C. T., Caulfield, M. P., Chorev, M., and Rosenblatt, M. Biochemistry 1992, 31, 4026-4033). Briefly, 67 μg of peptide in 50 μL phosphate buffer, pH 7.4, in a borosilicate tube, coated with 10 μg Iodogen® (Pierce Chemical), were treated at room temperature with 2 mCi [¹²⁵I]Na for 12 min, followed by dilution with 200 μL of 0.1% TFA in water.
Cells were plated in 24-well tissue culture dishes (Corning Glass Works, Corning, N.Y.) and grown to subconfluency. […] After incubation, cells were washed twice with PBS and lysed with 0.1 M NaOH. Radioactivity in the lysate was measured in a γ-counter (Analytic GammaTrac™ 1193).

EC50 (half maximal stimulation of adenylate cyclase) [1]: 3.9 nM
IC50 [2]: 285 nM
B1: [Nle^8,β-Ala^18, Nal^23, Tyr^34]bPTH(1-34)NH2 (peptide)
peptide: AVSEIQF[Nle]HNLGKHLSS[βAla]ERVE[2Nal]LRKKLQDVHNY-NH2
modifications: N-terminus assumed
SMILES: CCCC[C@H](NC(=O)[C@H](Cc1ccccc1)NC(=O)[C@H](CCC(N)=O)NC(=O)[C@@H](NC(=O)[C@H](CCC(=O)O)NC(=O)[C@H](CO)NC(=O)[C@@H](NC(=O)[C@H](C)N)C(C)C)[C@@H](C)CC)C(=O)N[C@@H](Cc1c[nH]cn1)C(=O)N[C@@H](CC(N)=O)C(=O)N[C@@H](CC(C)C)C(=O)NCC(=O)N[C@@H](CCCCN)C(=O)N[C@@H](Cc1c[nH]cn1)C(=O)N[C@@H](CC(C)C)C(=O)N[C@@H](CO)C(=O)N[C@@H](CO)C(=O)NCCC(=O)N[C@@H](CCC(=O)O)C(=O)N[C@@H](CCCNC(=N)N)C(=O)N[C@H](C(=O)N[C@@H](CCC(=O)O)C(=O)N[C@@H](Cc1ccc2ccccc2c1)C(=O)N[C@@H](CC(C)C)C(=O)N[C@@H](CCCNC(=N)N)C(=O)N[C@@H](CCCCN)C(=O)N[C@@H](CCCCN)C(=O)N[C@@H](CC(C)C)C(=O)N[C@@H](CCC(N)=O)C(=O)N[C@@H](CC(=O)O)C(=O)N[C@H](C(=O)N[C@@H](Cc1c[nH]cn1)C(=O)N[C@@H](CC(N)=O)C(=O)N[C@@H](Cc1ccc(O)cc1)C(N)=O)C(C)C)C(C)C
notes: Synthetic analog of bovine PTH(1-34), carboxamide at the C-terminus
